Laboratory results: paper doi:10.1101/2023.04.07.535877

What was measured:
[1] = target: glutamine synthetase type I-α from Methanothermococcus thermolithotrophicus (Methanothermococcus thermolithotrophicus (endogenous, DSM 2095)); experiment: crystal structure
[2] = target: glutamine synthetase type I-α from Methanothermococcus thermolithotrophicus (Methanothermococcus thermolithotrophicus (endogenous, DSM 2095)); experiment: native gel or EMSA
[3] = target: glutamine synthetase type I-α from Methermicoccus shengliensis (Methermicoccus shengliensis (endogenous, ZC-1, DSM 18856)); experiment: crystal structure
[4] = target: glutamine synthetase type I-α from Methermicoccus shengliensis (Methermicoccus shengliensis (endogenous, ZC-1, DSM 18856)); experiment: native gel or EMSA

stoichiometry N [1] | stoichiometry N [2] | stoichiometry N [3] | stoichiometry N [4] | Substance
12 | 12 |  |  | glutamine synthetase type I-α from Methanothermococcus thermolithotrophicus (enzyme)
 |  | 12 | 12 | glutamine synthetase type I-α from Methermicoccus shengliensis (enzyme)
